Assay: soluble on expression in E. coli; label from the status in PepcDB or PDB records

Sequence | soluble on expression in E. coli
MGNRSSSHYPPPPHWMHQRTSYSTTTSPYPEAKQRPIAPGAFAEPYMHHNPHHPQSKAQMRRSMISLNADSGYMGGPDSERLRQMRGSRMSLNQIDFEPAMMPPPRILIPPDAKTLKKLEKMEKKHQKLMKKLGARGIPIQMPVPPPPPMHPMYSRAISYDDLHRMHEAPEIDVRMRQRDWRTSDERRGLPTRRETQSQYVKHNYSSTNRRAELNGSLASSSPMTSSEEGGHSSDPWNTSSISSGKRDIISPPMYSSTPHHHNHHNHQQLQHHQVIKSPQPPITKTIEVKVERSEKVEQQVSEPTKRAPPTAAQTASSTSSRIQHNQTLNNSNATYAQPIIRRQPSYGSRSSSIATSQMRCDQSEIDFSWVNEEEDKLKRESKRIDSLPEFYFGMDPPPVPSDNEKENDEKRNRRKSSVLEKTAAFEIEARRNDRKEPSFLSRSSHQLLTTSEIPPADYSPLSIHTKEIGGPAERRIYRIQKQQQQHSSEDRRYRSSIAF | not soluble
MEISNRLKSISEVMDRCEIAADIGTDHAYLPIYLIKNNLCKRFIASDVNAGPLKKAINNINKYKLEDKIECRLGSGLNVLKLEEVDVVVIAGMGGNLIRDIIEERLDIFKKLKYAVLQPVQNPEILREYLIKRGFNIIEEQLCIDESKYYEIIKVCYDSKIEDKDDVYYEIGDKLIDMKHPLLKEYINYKIRKYDKIYKNISEESLNALSRKNELSIKIRKLKELLSCL | not soluble
MQYLEKKEIKEIQLALLDYIDETCKKHDIPYFLSYGTMLGAIRHKGMIPWDDDIDISLYREDYERLLKIIEEENHPRYKVLSYDTSSWYFHNFASILDTSTVIEDHVKYKRHDTSLFIDVFPIDRFTDLSIVDKSYKYVALRQLAYIKKSRAVHGDSKLKDFLRLCSWYALRFVNPRYFYKKIDQLVKNAVTNTPQYEGGVGIGKEGMKEIFPVDTFKELILTEFEGRMLPVPKKYDQFLTQMYGDYMTPPSKEMQEWYSHSIKAYRKNLEHHHHHH | soluble
MYNGILPVYKERGLTSHDVVFKLRKILKTKKIGHTGTLDPEVAGVLPVCIGNATRVSDYVMDMGKAYEATVSIGRSTTTEDQTGDTLETKGVHSADFNKDDIDRLLENFKGVIEQIPPMYSSVKVNGKKLYEYARNNETVERPKRKVNIKDIGRISELDFKENECHFKIRVICGKGTYIRTLATDIGVKLGFPAHMSKLTRIESGGFVLKDSLTLEQIKELHEQDSLQNKLFPLEYGLKGLPSIKIKDSHIKKRILNGQKFNKNEFDNKIKDQIVFIDDDSEKVLAIYMVHPTKESEIKPKKVFN | soluble
MDPKRWWEKQEDIVISKDQIPRCDNKEVKMFGGMLLACDDVVTEDQLSWAPGFTDLPKKRGKKKDLNKFDAGILPGTSKQNNPMDPQVRLLLEASWEAMVDAGINPRGLRGSQIGDFDECATPGTSGTQKQNPVTEMGCIMSDTVPSMFSNRISYTFDLQGPSHSADKINFSTKKRMTKLRNRNSIV | not soluble
MKLFLAEPFKSLWAGRDAFAEVEGLSGEVYRELEGRRTLRTEVDGRGYFVKIHRGIGWGEIAKNLATAKLPVLGAGKEWDAIERLHEVGVPTMTAVAYGERGSNPAAQHSFIVTEELAPTTSLEDVSLNWRTEPPEPRLKRAFIAEVARLVGMMHRAGVNHRDCYICHFLLHTDKPVTADDFRLSVIDLHRAQTRRAITPRWRNKDLAALYFSALDIGLTRRDKLRFLKDYFQLPLREILLKEAALLTWLDKKADKLYQRKVRYGDAL | not soluble
MGSDKIHHHHHHMRVAIDAFNIALAHGTGVATYGRTLASAAAGLGHEVNVLFGAGAGYSKVPLLNEIALAEVGAVSARGPSRAALARGIARGLAGARPAHDLPISGQVILPPGLRLDARRHSNVPNLFKAADLGFRAAGAFSKVKVPGTDLAHWTYPLPLKMVGARNVYTLHDLVPLRLPYTTADVKHAYYRLCRRIARDADHILTVSECSRRDIVRLLGVDEDRVTNLYQTSDIADAIAGVSEDFVARYVEGLLGVGMREYFLFFGAIEPKKNVARLIEAFLASAVQSPLVIVGGAGWGGEQDVKLLKSLAGMDTRKRIVWLGYLPRQMLAMLIAGARATVFPSLYEGFGLPVLESMELGTPVITSNVSSLPEVAQDAGLLVDPYDVRSLATAFLQLDADPGLRSQMSMRGREVAAGFSAEAYRGRLADFYAKF | not soluble
MGSDKIHHHHHHLSNYINDLRQKVGNAPLILNTATGALFNNAGEVLLQERVDTKDWGFPGGYLEYGETYKKAIMREFQEDTGLSVIPEKLIQNTDDTFYKYPNGDQIQSINQFFLVRYLEGTLLSVKTGETTRLKYFKLDQPPQFFNEQHAEMFKKIQRMRE | not soluble
MEDILMPEGEKVSMENFALLRVLGKGAYGKVFLVRKVGGKDHNTIYAMKVLRKTRVLTKQKTLEHTMAERQVLERLRGTPFLVNLFYAFQTDTKLHIVMEYVRGGELFTHLCSRGHFDLEAARFVIAELVVAIDSLHQRKVIYRDLKLENILLDEEGHVKLTDFGLSKLFLPGELDRANSYCGTIEYMSPEVINRPEGGYSDVVDWWSLGVISFELLTGCSPFTVDGAQNSSKDIAKRIMTKKVPFPKTMDVDARDFIGQLLEKKLEKRLGYNGVDEIKNHKFMSSIDWDAAVKRTLKPVIVPRIGHDLDTQFFSAEFTSQPPLYSPAESPLNANTLFRGYSYVSPSVIFANDNVIGEELMAEDVNALLASSSFFAKYKLDKSDAGLLGKGAFSVVRRCERVVDGAQFAVKIVSQKFASQAQREARILEMVQGHPNIVQLHDVHSDPLHFYLVMEILTGNELLERIRKLERFTESEAADIMRQLVSAVKYLHDKRIVHRDLKPENILFESIDSSARLRLVDFGFARLLPNSMEQQLKSVQVLRKMTPCFTLQYAAPEVLDVGDSQPEYNEQCDLWSLGVVLFTMLSGQVPFHARSRQESATEIMQRICRAEFSFTGDAWTNVSADAKNLITGLLTVDPKKRLSMQELTAHMWLKSSASMDTPLQTPSILPSSADETFNETLRAFLHANRDGFHLLDVAAAPLMKRRGIKRQSGDKDASGNSKNSRVTQFECLPEEQEAEMTSSTSRPSNLGMMNYREPNSGTIRETRGSDSS | not soluble
MVSAKDFSGAELYTLEEVQYGKFEARMKMAAASGTVSSMFLYQNGSEIADGRPWVEVDIEVLGKNPGSFQSNIITGKAGAQKTSEKHHAVSPAADQAFHTYGLEWTPNYVRWTVDGQEVRKTEGGQVSNLTGTQGLRFNLWSSESAAWVGQFDESKLPLFQFINWVKVYKYTPGQGEGGSDFTLDWTDNFDTFDGSRWGKGDWTFDGNRVDLTDKNIYSRDGMLILALTRKGQESFNGQVPRD | soluble
MFSDYHVHSSFSFDSEESPRAIVEKAIALGMKQICFTDHQDFNWPIKGESPYIDFPKYFEVLNSLRNEYSSKINILKGVELGLTSDNFSLCHKFLDSYDFDFVIGSCHIVDQMDPYYAEFWKGKNDRDCFELYFKTLLDSLKFFIGRNTCTTPRTVNTLGHLDYIVRYSPNKDNNYSVADYIDVIDEILKMIIENDIKLEINTSNFSKGFDFPNPHTDIIRRYKELGGLYVTVGSDAHKAQFIGSGFDLVEKIVEKYKLKVFTI | not soluble
MNGLLKYSFPICFSLLALFACEDDGIDVDNIEVPAGFALSAGTATNFLTSSYAYDRSADWITGAYDKRFTRGDKLYDDIRTSSNGIGGGLGPVYAGYSCGSCHRNAGRTQPTLWSEGGSGSSGFSSMLVYISRKNGAFFQDYGRVLHDQAIYGVKPEGKLKVEYTYETFQFPDGETYELCKPNYSIYEWYADSIKPEDLFCTVRIPLRHVGMGQMMALDPTEIEALAAKSNYPEYGISGRCNYISERGMRSLGLSGNKAQHADLTVELGFSSDMGVTNSRYPEEICEGQAQVNQGSMMGLSYAQLDVSTEEMENVDLYMQSLSVPARRNVNNEQVIKGEQNFYKAKCHLCHVTTLHTKPRGSILLNGTRLPWLGSQTIHPYSDFLLHDMGSEIMGVGLNDNYVSGLARGNEWRTTPLWGIGLQETVNGHTYFLHDGRARNYIEAIMWHGGEGEASKNLFKKMSKEDRNALVAFLKSL | not soluble
MHHHHHHSSGRENLYFQGMEELIPLVNRLQDAFSALGQSCLLELPQIAVVGGQSAGKSSVLENFVGRDFLPRGSGIVTRRPLVLQLITSKAEYAEFLHCKGKKFTDFDEVRLEIEAETDRVTGMNKGISSIPINLRVYSPHVLNLTLIDLPGITKVPVGDQPPDIEYQIREMIMQFITRENCLILAVTPANTDLANSDALKLAKEVDPQGLRTIGVITKLDLMDEGTDARDVLENKLLPLRRGYVGVVNRSQKDIDGKKDIKAAMLAERKFFLSHPAYRHIADRMGTPHLQKVLNQQLTNHIRDTLPNFRNKLQGQLLS | soluble
MSLGINRIDHAAVQVGDLGKALAWYEDVLGLTVLSRDDTTVHLACRGEAADITLVKGRQSLENFAFGVDDQEDLDRVESILKQEGVASERLNGDSRPGEGATLKFHLPSGHELRLCTGGAERRAGISDFDARGSHVPCDMDHINLLGAVDPSVMRDFLMMIGFKSSLNISVGGQLAGVWLRGSAYDHDIAYMRAVRPGDRLHHVAFAVEDGNHYFRLSDRLMDTGHRWEFGPGRHNGGLGKSTGFGTNNYAYAFDPFGNRNEFSSGMEQFSDDTPPLDCHIAPEQLTEVMNGWGYEMAETFMTVGSEGHHHHHH | not soluble
MGSDKIHHHHHHMTIWVRNGNNAATEQEISAKETELGLFLPAEYKELLLKQNGGLIRKNHFPTNEPTSYGLDVAEIYYLASLNELLTDIPEQNDVDLAGKQVYFHRDESRYIGFSYADNKSLPSIIYVDFETLQTLVVAENMAEFLEALYFSPFPVDFAEQFPVKKLDQILASSNVKKTKQLLELLEDYPDKKWYLETLIRLLQKNEIPYNIVVYQSFENQLLYFRRKLVPELVEKIFAMLKDCDGIDQSATTELYKEWE | not soluble
MGHHHHHHSHMGDPEYLATFRIVVMPIAREFSPDLVLVSAGFDAAEGHPAPLGGYHVSAKCFGYMTQQLMNLAGGAVVLALEGGHDLTAICDASEACVAALLGNRVDPLSEEGWKQKPNLNAIRSLEAVIRVHSKYWGCMQRLASCPDSWVPRVPGADKEEVEAVTALASLSVGILAEDRPSEQLVEEEEPMNL | not soluble
MGSDKIHHHHHHMTLLDKDLVSIQEVRTLVRRSKVAQEKLSKMSQEQIDKIVKAVVDAAFNNATKLAKMANEETGFGKWEDKVIKNTFASMGVYETLKNTKTIGIIGEDKEANTIDIATPVGVVAGLIPSTNPTSTVIYKTIISLKAGNTIVFSPHPNAKNCILETVNIISDAAIKAGAPEDSILCITNPSIVGTNELMKHKDTNLILATGGEAMVRAAYSSGTPAIGVGPGNGPAFIDKSANVKLAIKRIIDSKTFDNGVICASEQSIVIEKSMEETVLKELKNQGAYVLNEEESERLAKFILRANGTMNPQIVGKSVEVIANLADLTNVPKNTKVLVARENKVGHNVAYSREKLTPILAFYVEENVEAIMNRCREILLNEGAGHTFSMHVNDEELVKRFALNMPVSRILVNTPSALGGIGASTNLVPALTLGCGAIGGSSTSNNIGPLDLINVKRVAYGIKEIEELGRDKSQVEKSMFDSMDKEELINLLVQKLFKELA | not soluble
MSLKFIGECRDRWPIAVLCRTLEVTRAAYYRFAGRGPTVTEIKQTQIIQAVKEIRLEKHHDAYGSPRMQRAIVKRGVVCCRNTVAKCMRHAGIQANRRTKFRISTTDSNHDQPIASNLLGQNFTTEAINRVWLTDITYIPTQEGSTYLCAFVDLHSRKIVSWKTSRNMDSELVVGAFDQALTFRKPNAGLIVHSDRGSQFASDHFRRRLAASGLVQSMSRRGNCYDNAPMESFFKSYKTEEAQQIYDTHEHATRGVSDYIERFYNPHRLHSSLGYLSPIDFEQAIKEPSLVSESEGHHHHHH | not soluble
SEQIMSSQQVARRMMLDIGDKPQEHLVAIYLDTQNRIIQQKTVFIGGVRRSIAEPREILYYACHLMATSLIVVHNHPSGEAYPSRNDIDFTQKIKRSCDDLGICLLDHLIVGKSTYYSFREEREDFEL | not soluble
